Reference: patent US20110111454

Key:
[1] = biological target: [Tn]-MalE-hGH (UniProt P01241)
[2] = biological target: IFNα2b[Tn] (UniProt P01563)
[3] = tested on: IFNα2b[Tn]-FCHASE

IFNα2b[Tn], sequence (P01563 whole entry, looked up): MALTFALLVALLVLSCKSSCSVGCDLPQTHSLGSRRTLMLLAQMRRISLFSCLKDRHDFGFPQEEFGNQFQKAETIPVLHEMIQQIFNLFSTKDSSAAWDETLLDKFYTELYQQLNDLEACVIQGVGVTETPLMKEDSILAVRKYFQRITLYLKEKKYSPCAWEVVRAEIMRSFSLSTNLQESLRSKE
[Tn]-MalE-hGH, sequence (P01241 27-217): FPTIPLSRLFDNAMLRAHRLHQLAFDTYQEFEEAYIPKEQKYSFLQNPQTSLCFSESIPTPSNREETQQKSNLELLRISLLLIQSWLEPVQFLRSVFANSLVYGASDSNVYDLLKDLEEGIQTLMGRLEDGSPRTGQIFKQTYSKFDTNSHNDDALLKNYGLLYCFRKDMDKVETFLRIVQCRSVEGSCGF

Substance	PNA blot after the galactosylation reaction [1]	MALDI mass of the galactosylated protein [2]	CE-MS mass shift of the peptide [3]	Specific Activity (mU/mg) on 1 mM IFNα2b[Tn]-FCHASE [3] [mU/mg]	percent of IFNα2b[Tn]-FCHASE converted into IFNα2b[T-Ag]-FCHASE after 30 minutes (capillary electrophoresis) [3]
CgtB11168 (Δ30, C-terminal MalE)	Increased staining in Lane D after PNA blotting				
CgtBOH4384 (Δ30, C-terminal MalE)		The presence of the species at m/z 19665 is the proof that the IFNα2b[Tn] protein can be galactosylated by CJL-136	the molecular weight of IFNα2b[T-Ag]-FCHASE was 162 Dalton higher than that of IFNα2b[Tn]-FCHASE	272	91.9% of the material had been converted into IFNα2b[T-Ag]-FCHASE
CgtBOH4384 (Δ30, N-terminal MalE)				14	
